Data taken from the RNAGym collection of RNA variant scans (doi:10.7554/elife.80360).

B1: HDV Ribozyme (parent)
chain: GGCCGGCAUGGUCCCAGCCUCCUCGCUGGCGCCGGCUGGGCAACAUUCCGAGGGGACCGUCCCCUCGGUAAUGGCGAAUGGGACCCA

Variants of: B1
Assay: self-cleavage, relative activity (ratio to wild type); higher = more cleavage; co-transcriptional
Work on C30A G67U yielded a self-cleavage of 0.339. For C30A G67A, the self-cleavage was 0.623. For C30A A42U, the self-cleavage was 0.241. C30A A42C gave a self-cleavage of 0.14. With G29C G53U the self-cleavage was 0.0723. For G29C G53A, the self-cleavage was 0.133. For G29C G53C, the self-cleavage was 0.0462. Variant G29U U47A has a self-cleavage of 0. In the case of G29U U69G, the self-cleavage is reported as 0.0615. Variant G29U U69C has a self-cleavage of 0.128. With C30A G31C the self-cleavage was 0.115. C30A G31U showed a self-cleavage of 0.0733. In the case of C30A G54A, the self-cleavage is reported as 0.535. For C30A G54C, the self-cleavage was 0.519. Variant C30A G54U has a self-cleavage of 0.5. In the case of G29U G34U, the self-cleavage is reported as 0.0519. In the case of G29U G34A, the self-cleavage is reported as 0.111. G29A G55A gave a self-cleavage of 0.208. In the case of G29A G55U, the self-cleavage is reported as 0.168. For G29C A71C, the self-cleavage was 0.0536. C30G C62U gave a self-cleavage of 0.185. C30G C62A gave a self-cleavage of 0.122. Work on G29U C49G yielded a self-cleavage of 0.133. In the case of C30A U69A, the self-cleavage is reported as 0.353. C30A U69G gave a self-cleavage of 0.469. G29U C62A gave a self-cleavage of 0.0773. G29U C62U showed a self-cleavage of 0.0804. In the case of G29U C62G, the self-cleavage is reported as 0. In the case of C30A G50U, the self-cleavage is reported as 0.729. C30G A42U gave a self-cleavage of 0. In the case of G29C C32A, the self-cleavage is reported as 0.0791. In the case of G29C C32U, the self-cleavage is reported as 0.119. G29U G40A gave a self-cleavage of 0.0955. In the case of G29U G40C, the self-cleavage is reported as 0.0583. Work on C30G C58U yielded a self-cleavage of 0.0906. Variant C30G C58A has a self-cleavage of 0.0386. Work on C30G C58G yielded a self-cleavage of 0.0804. Work on G29C C61G yielded a self-cleavage of 0.032. Work on G29C C61U yielded a self-cleavage of 0.119. G29C A45C showed a self-cleavage of 0.111. For G29C A45G, the self-cleavage was 0. Work on C30A A45G yielded a self-cleavage of 0.391. Variant C30A A45U has a self-cleavage of 0.375. In the case of C30G, the self-cleavage is reported as 0.0914. C30A gave a self-cleavage of 0.547. C30A G34C showed a self-cleavage of 0.119. Variant C30A G34A has a self-cleavage of 0.0801. G29U A78C showed a self-cleavage of 0. Variant C30A U79C has a self-cleavage of 0.216. Variant C30A G81A has a self-cleavage of 0.111. For C30A G81U, the self-cleavage was 0.134. For G29C G52C, the self-cleavage was 0.208. In the case of G29C C49G, the self-cleavage is reported as 0. In the case of C30G A43U, the self-cleavage is reported as 0.194. In the case of G29U G73A, the self-cleavage is reported as 0.0898. C30A G52A gave a self-cleavage of 0.522. With C30A G52C the self-cleavage was 0.58. C30A G38C showed a self-cleavage of 0.203. For G29U G38U, the self-cleavage was 0.141. In the case of G29C A56G, the self-cleavage is reported as 0.0615. Variant G29C A56C has a self-cleavage of 0.237. Variant G29U C61U has a self-cleavage of 0.122. Work on C30G C66A yielded a self-cleavage of 0.0282. With G29U C75A the self-cleavage was 0.0639. With G29U C75G the self-cleavage was 0.116. Variant G29U C75U has a self-cleavage of 0.0767. Work on G29U G80A yielded a self-cleavage of 0.0934. With G29U G81A the self-cleavage was 0.12. Variant C30A A51C has a self-cleavage of 0.612. C30A A51U gave a self-cleavage of 0.735. For G29A G76C, the self-cleavage was 0.256. Work on G29A G80C yielded a self-cleavage of 0.145. Variant G29A G80A has a self-cleavage of 0.163. In the case of G29U G50A, the self-cleavage is reported as 0.104. In the case of G29U G50C, the self-cleavage is reported as 0.153. Variant C30G C33A has a self-cleavage of 0.0519. Variant C30G C33G has a self-cleavage of 0.115. G29C C48U showed a self-cleavage of 0.135. C30A G55C showed a self-cleavage of 0.653. Work on G29U G55A yielded a self-cleavage of 0.122. G29U G55C showed a self-cleavage of 0.0692. G29U G55U gave a self-cleavage of 0.0944. G29U C41A gave a self-cleavage of 0.0755. Variant G29U C58U has a self-cleavage of 0.0292. With G29U C58G the self-cleavage was 0.0755. For G29C C84G, the self-cleavage was 0.208. With G29C C84A the self-cleavage was 0.0831. Work on G29C C84U yielded a self-cleavage of 0.032. G29A G82U gave a self-cleavage of 0.0911. G29C G40U showed a self-cleavage of 0.0615. G29C U46C gave a self-cleavage of 0.0755. Variant C30A C61A has a self-cleavage of 0.428. C30A G82U showed a self-cleavage of 0.166. Variant C30A G82A has a self-cleavage of 0.0898. With G29U C33A the self-cleavage was 0.0519. G29U C33G showed a self-cleavage of 0.0369. Work on G29U G59U yielded a self-cleavage of 0.147. Work on G29U G59C yielded a self-cleavage of 0.104. In the case of G29C A42G, the self-cleavage is reported as 0. G29C A42U gave a self-cleavage of 0.0314. For G29U G68C, the self-cleavage was 0.106. G29C G82C gave a self-cleavage of 0.0739. G29U G52C gave a self-cleavage of 0.0268. Work on C30G C84A yielded a self-cleavage of 0. In the case of G29A U37A, the self-cleavage is reported as 0.136. With C30A G39A the self-cleavage was 0.0489. For C30A G39C, the self-cleavage was 0.157. Work on C30A C64G yielded a self-cleavage of 0.485. G29U G74C gave a self-cleavage of 0.137. In the case of G29C C57G, the self-cleavage is reported as 0.133. G29C C57A showed a self-cleavage of 0.125. G29C C30G showed a self-cleavage of 0. G29C C30U showed a self-cleavage of 0.0415. With C30A G40C the self-cleavage was 0.0277. With C30A G40U the self-cleavage was 0.183. For C30A C66U, the self-cleavage was 0.421. With C30A C57A the self-cleavage was 0.688. C30A C57U showed a self-cleavage of 0.587. Work on C30A C57G yielded a self-cleavage of 0.284. Work on C30A C32A yielded a self-cleavage of 0.0627. With G29U U46C the self-cleavage was 0. C30A U37A gave a self-cleavage of 0. In the case of G29U G39A, the self-cleavage is reported as 0. Work on G29U G39U yielded a self-cleavage of 0.111. G29U C64A gave a self-cleavage of 0.0665. Work on G29U C64G yielded a self-cleavage of 0.0739. Variant G29U C64U has a self-cleavage of 0.211. Work on G29U G53C yielded a self-cleavage of 0.125. G29U C66A gave a self-cleavage of 0.201. Variant G29U C66G has a self-cleavage of 0.0652. Work on G29U G76U yielded a self-cleavage of 0.137. For G29U G76C, the self-cleavage was 0.12. Work on C30A A70C yielded a self-cleavage of 0.491. For C30A A70G, the self-cleavage was 0.332. Work on G29C A87U yielded a self-cleavage of 0.0378. For G29C A87G, the self-cleavage was 0.086. Variant G29C A87C has a self-cleavage of 0.0932. In the case of G29U C48A, the self-cleavage is reported as 0.117. G29U C48G showed a self-cleavage of 0.106. For C30G A71C, the self-cleavage was 0.0554. In the case of C30G A71U, the self-cleavage is reported as 0.0875. G29U C36G gave a self-cleavage of 0.201. With G29U C36A the self-cleavage was 0.187. For G29U C36U, the self-cleavage was 0.187. G29C G34C gave a self-cleavage of 0.125. G29C G34U gave a self-cleavage of 0.181. With G29C G34A the self-cleavage was 0. For G29C C44A, the self-cleavage was 0.0554. For G29U U72A, the self-cleavage was 0.218. With G29U U72C the self-cleavage was 0.0811. C30A U46G showed a self-cleavage of 0.256. C30A U46A gave a self-cleavage of 0.147. G29C G54U showed a self-cleavage of 0.204. With G29C G54A the self-cleavage was 0.0773. G29C G55C gave a self-cleavage of 0.0332. C30G A51U showed a self-cleavage of 0.0297. Variant C30G A51G has a self-cleavage of 0. For C30G C41G, the self-cleavage was 0.0707. In the case of G29U U60C, the self-cleavage is reported as 0. With C30A C75U the self-cleavage was 0.101. For C30G C86U, the self-cleavage was 0.0332. With G29U A83C the self-cleavage was 0.0692. For G29U A83G, the self-cleavage was 0.0329. Variant G29C G35A has a self-cleavage of 0.104. G29U A42C showed a self-cleavage of 0.125. Variant G29U U79C has a self-cleavage of 0.122. In the case of G29U U79G, the self-cleavage is reported as 0.0386.
